Molecular target: T1, Mnl1–FLAG (S. cerevisiae, UniProt P38888 21-796)
T1 construct: Mnl1 (Htm1), luminal ER mannosidase of S. cerevisiae; MHD amino acids 29–514, loop 515–650, CTD 651–796; called 'Full-length' against Mnl1ΔC; The end of the FLAG tag is stated for the GAL1 plasmid; also called Htm1; FLAG-tagged Mnl1; not shown: FLAG, C-terminal, kept
T1 sequence (looked up): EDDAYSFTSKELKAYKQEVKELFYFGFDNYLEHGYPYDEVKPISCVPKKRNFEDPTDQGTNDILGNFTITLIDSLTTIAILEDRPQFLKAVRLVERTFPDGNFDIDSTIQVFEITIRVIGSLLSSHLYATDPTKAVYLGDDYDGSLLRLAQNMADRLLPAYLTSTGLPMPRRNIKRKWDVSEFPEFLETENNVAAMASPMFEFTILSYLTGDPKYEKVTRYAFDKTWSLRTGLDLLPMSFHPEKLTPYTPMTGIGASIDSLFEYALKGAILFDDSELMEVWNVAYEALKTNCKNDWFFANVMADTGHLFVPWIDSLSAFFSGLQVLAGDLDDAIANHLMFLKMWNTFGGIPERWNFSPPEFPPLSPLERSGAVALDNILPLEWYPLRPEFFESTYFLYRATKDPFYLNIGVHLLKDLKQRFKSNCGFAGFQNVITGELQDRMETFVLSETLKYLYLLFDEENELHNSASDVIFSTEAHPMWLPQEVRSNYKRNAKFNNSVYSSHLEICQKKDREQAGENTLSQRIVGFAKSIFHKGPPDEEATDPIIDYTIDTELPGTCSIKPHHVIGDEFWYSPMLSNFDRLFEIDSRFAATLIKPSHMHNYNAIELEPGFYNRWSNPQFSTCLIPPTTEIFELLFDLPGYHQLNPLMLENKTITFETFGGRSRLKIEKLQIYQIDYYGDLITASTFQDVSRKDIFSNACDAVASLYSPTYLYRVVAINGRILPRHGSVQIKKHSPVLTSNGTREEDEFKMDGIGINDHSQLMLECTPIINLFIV
Test: cryo-EM structure; Mnl1–FLAG–Pdi1 complex at 1 mg/ml, purified from detergent-treated yeast membranes with anti-FLAG beads and by size-exclusion chromatography as a 1:1 complex; 25 mM HEPES pH 7.4, 150 mM NaCl
Settings: both partners purified

stoichiometry N: 1
B1: Pdi1 (protein disulfide isomerase) (enzyme, S. cerevisiae, UniProt P17967 29-522, looked up)
chain: PEDSAVVKLATDSFNEYIQSHDLVLAEFFAPWCGHCKNMAPEYVKAAETLVEKNITLAQIDCTENQDLCMEHNIPGFPSLKIFKNSDVNNSIDYEGPRTAEAIVQFMIKQSQPAVAVVADLPAYLANETFVTPVIVQSGKIDADFNATFYSMANKHFNDYDFVSAENADDDFKLSIYLPSAMDEPVVYNGKKADIADADVFEKWLQVEALPYFGEIDGSVFAQYVESGLPLGYLFYNDEEELEEYKPLFTELAKKNRGLMNFVSIDARKFGRHAGNLNMKEQFPLFAIHDMTEDLKYGLPQLSEEAFDELSDKIVLESKAIESLVKDFLKGDASPIVKSQEIFENQDSSVFQLVGKNHDEIVNDPKKDVLVLYYAPWCGHCKRLAPTYQELADTYANATSDVLIAKLDHTENDVRGVVIEGYPTIVLYPGGKKSESVVYQGSRSLDSLFDFIKENGHFDVDGKALYEEAQEKAAEEADADAELADEEDAIHDEL
notes: Pdi1, protein disulfide isomerase of S. cerevisiae, untagged; Trx domains a, b, b′ and a′; amino acids 24–500 could be modelled; source: S. cerevisiae, overexpressed together with Mnl1–FLAG (GAL1 promoter), purified as a complex
